Laboratory results from PMC2880635.
Positions count from the first letter of the chain named. In names and notes the source's numbering stands.

Substrate: O=[N+]([O-])c1ccc(OP(=O)(O)O)cc1
Experiment: purified protein, by the assay type
Details: other: substrate pNPP
[1] = Sts-1PGM, pH 5.0, 37 °C, pH 5.0
[2] = Sts-1PGM, pH 7.5, 37 °C, pH 7.5
[3] = Sts-2PGM(E481V), pH 5.0, 37 °C, pH 5.0
[4] = Sts-2PGM(E481V), pH 7.5, 37 °C, pH 7.5
[5] = Sts-2PGM(Q372V/S582Y), pH 7.5, 37 °C, pH 7.5
[6] = Sts-2PGM(S552A/S582Y), pH 5.0, 37 °C, pH 5.0
[7] = Sts-2PGM(S552A/S582Y), pH 7.5, 37 °C, pH 7.5
[8] = Sts-2PGM wild-type, pH 5.0, 37 °C, pH 5.0
[9] = Sts-2PGM wild-type, pH 7.5, 37 °C, pH 7.5
[10] = Sts-2PGM(A446S/S552A), pH 7.5, 37 °C, pH 7.5

B1: Sts-1PGM (Mus musculus) (protein)
chain: GPQKRCLFVCRHGERMDVVFGKYWLSQCFDAKGRYIRTNLNMPHSLPQRSGGFRDYEKDAPITVFGCMQARLVGEALLESNTVIDHVYCSPSLRCVQTAHNILKGLQQDNHLKIRVEPGLFEWTKWVAGSTLPAWIPPSELAAANLSVDTTYRPHIPVSKLAISESYDTYINRSFQVTKEIISECKSKGNNILIVAHASSLEACTCQLQGLSPQNSKDFVQMVRKIPYLGFCSCEELGETGIWQLTDPPILPLTHGPTGGFNWRETLLQE
Question: Which Km [1] does the source give for B1 here?
Answer: Its Km is 20 ± 9 µM.

Question: And the kcat [1]?
Answer: Its kcat is 63.4 s⁻¹.

Question: What about the kcat/Km [1] of the same protein?
Answer: The kcat/Km was 3.15e+06 M⁻¹ s⁻¹.

Question: And the Km [2]?
Answer: The Km was 500 ± 60 µM.

Question: What about the kcat [2] of the same protein?
Answer: The kcat was 70 s⁻¹.

Question: What about the kcat/Km [2] of the same protein?
Answer: The kcat/Km was 141000 M⁻¹ s⁻¹.

B2: Sts-2PGM(E481V) (Mus musculus; E481V) (protein)
chain: ATISRRGILVVRHGERVDQVFGKSWLQQCTTADGKYYRPDLNFPRSLPRRSNGIKDFENDPPLSSCGIFQARLAGEALLDSGVRVTAVFASPALRCVQTAKHILEELKLEKKLKIRVEPGIFEWMKWVASKATLTFLTLEELKEANFNVDLDYRPALPRCSLMPAESYDQYVERCAVSMGQIINTCPQDMGITLIVSHSSALDSCTRPLLGLPPRECGDFAQLVRKIPSLGMCFCEENREDGKWDLVNPPVKTLTHGANSVFNWRNWISSN
Question: Which results are given for B2?
Answer: Km [3]: 200 ± 20 µM; kcat [3]: 0.65 s⁻¹; kcat/Km [3]: 3100 M⁻¹ s⁻¹; Km [4]: 1000 ± 150 µM; kcat [4]: 0.15 s⁻¹; kcat/Km [4]: 150 M⁻¹ s⁻¹

B3: Sts-2PGM(Q372V/S582Y) (Mus musculus; Q372V/S582Y) (protein)
chain: B2 chain with Q19V, V128E, S229Y
Question: Which results are given for B3?
Answer: Km [5]: 700 ± 100 µM; kcat [5]: 0.4 s⁻¹; kcat/Km [5]: 571 M⁻¹ s⁻¹

B4: Sts-2PGM(S552A/S582Y) (Mus musculus; S552A/S582Y) (protein)
chain: B2 chain with V128E, S199A, S229Y
Question: For B4, which Km [6] is on record?
Answer: The Km was 620 ± 100 µM.

Question: What about the kcat [6] of the same protein?
Answer: The kcat was 2.9 s⁻¹.

Question: What about the kcat/Km [6] of the same protein?
Answer: Its kcat/Km is 4700 M⁻¹ s⁻¹.

Question: What about the Km [7] of the same protein?
Answer: Its Km is 1900 ± 200 µM.

Question: What about the kcat [7] of the same protein?
Answer: The kcat was 0.43 s⁻¹.

Question: And the kcat/Km [7]?
Answer: The kcat/Km was 226 M⁻¹ s⁻¹.

B5: Sts-2PGM (Mus musculus) (protein)
chain: B2 chain with V128E
Question: Which Km [8] does the source give for B5 here?
Answer: Its Km is 1500 ± 80 µM.

Question: And the kcat [8]?
Answer: The kcat was 0.3 s⁻¹.

Question: And the kcat/Km [8]?
Answer: The kcat/Km was 200 M⁻¹ s⁻¹.

Question: What about the Km [9] of the same protein?
Answer: The Km was 2000 ± 130 µM.

Question: What about the kcat [9] of the same protein?
Answer: Its kcat is 0.03 s⁻¹.

Question: And the kcat/Km [9]?
Answer: Its kcat/Km is 15 M⁻¹ s⁻¹.

B6: Sts-2PGM(A446S/S552A) (Mus musculus; A446S/S552A) (protein)
chain: B2 chain with A93S, V128E, S199A
Question: What does the source list for B6?
Answer: Km [10]: 640 ± 80 µM; kcat [10]: 0.27 s⁻¹; kcat/Km [10]: 420 M⁻¹ s⁻¹
